Measurements published in the supplement of paper PMC10065799, “High-throughput profiling of sequence recognition by tyrosine kinases and SH2 domains using bacterial peptide display” (eLife, 2023).

The sequences below were run against Fyn (UniProt P06241) (assay: phosphorylation enrichment, bacterial display (enrichment ratio); higher = better substrate or ligand; peptides without Tyr show the background).
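Note: 11-residue human phosphosite peptides and single-mutation variants displayed on the E. coli surface, counted by deep sequencing, each peptide's frequency after selection divided by its frequency in the unselected input library; frequency after pTyr selection over input frequency; kinase dosed for 20-30% of maximal phosphorylation in three min.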

Chain of Fyn (P06241 whole entry, looked up): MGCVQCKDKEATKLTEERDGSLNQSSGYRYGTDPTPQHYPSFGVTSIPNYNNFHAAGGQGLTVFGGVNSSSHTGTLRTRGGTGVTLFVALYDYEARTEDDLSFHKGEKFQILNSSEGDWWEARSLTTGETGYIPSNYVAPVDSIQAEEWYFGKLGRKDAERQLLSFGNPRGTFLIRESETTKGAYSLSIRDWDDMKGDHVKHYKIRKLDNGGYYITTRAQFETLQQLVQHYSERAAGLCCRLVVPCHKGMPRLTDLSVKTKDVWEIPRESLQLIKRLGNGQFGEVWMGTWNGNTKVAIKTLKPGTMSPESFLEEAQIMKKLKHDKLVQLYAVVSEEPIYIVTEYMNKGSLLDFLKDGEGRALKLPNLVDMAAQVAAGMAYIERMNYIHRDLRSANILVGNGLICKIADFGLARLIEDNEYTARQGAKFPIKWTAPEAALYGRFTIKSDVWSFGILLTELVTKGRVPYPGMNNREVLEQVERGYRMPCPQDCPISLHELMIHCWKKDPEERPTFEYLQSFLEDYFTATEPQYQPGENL

Row | Sequence | phosphorylation enrichment
1 | QEEPEYWDQET [HLA-A_Y83_G80E] | 0.943
2 | KILGRYYETSS [PAX2_Y72_G76S] | 0.424
3 | HQIQSYTCEID [DES_Y331] | 0.628
4 | PLDGEYFTRQI [TP53_Y327_L330R] | 0.547
5 | LQLLGYRPVYS [CHST6_Y358] | 0.916
6 | AAVDEYLEFRR [FAM221A_Y17_YF] | 0.949
7 | LTRDIYKNDFF [ROS1_Y2110_A2106T_YF] | 0.836
8 | DDDPEDRKFLE [UPF3B_Y160_Y160D] | 0.56
9 | GRLVEYDIDEV [SMS_Y134] | 0.508
10 | NPSFNYEIVNQ [DYNC1H1_Y3379_R3384Q_YF] | 0.524
11 | LKETGYVVERP [BCLAF1_Y466] | 0.434
12 | CTTNHYNYMCN [TP53_Y234_I232N] | 0.382
13 | CEQELYSQLVF [WAS_Y102_W97C_YF] | 6.89
14 | SVCPDYDLCSI [SQSTM1_Y148_V153I] | 0.868
15 | PKEEPYQMQEK [SLC5A3_Y565] | 0.784
16 | IGEGTYGVVYK [CDK2_Y15] | 10.6
17 | LSCLAYSGKDA [FXN_Y205_S202C] | 0.52

Row | Sequence | phosphorylation enrichment
18 | NACGLYFKLHN [GATA2_Y376_YF] | 0.427
19 | SQDSAYHSGIQ [FLG_Y3940] | 0.421
20 | IVKAYYVRARA [AIPL1_Y268] | 0.466
21 | FEREQYADRAR [RBM4_Y355_YF] | 0.484
22 | GFEEAYSVFKK [PAFAH1B1_Y28_YF] | 1.29
23 | DKITQYVEEVK [STX2_Y49] | 0.509
24 | ARLEYCENEKK [IRS1_Y47_Y47C] | 0.567
25 | YETVKYFNNER [ABCB7_Y345] | 1.37
26 | QKNVSYVSTVS [TASOR_Y1043] | 0.532
27 | HLNLTYRILSF [MMP23B_Y95_F91L] | 0.694
28 | RSDEDYLYREE [POR_Y573] | 0.761
29 | IEDPYYGNDFD [ACP1_Y133_S137F] | 1.65
30 | IVLRSYPASDH [NID2_Y449_G453D] | 0.478
31 | SVGVPYEPPEV [TP53_Y220_V217G] | 0.545
32 | SKNYTYIWWLN [PSG4_Y271] | 0.343
33 | KLIMEYLPYGS [JAK2_Y931] | 0.518

What follows are sequences tested against EPHB1 (UniProt P54762) in the same assay as above.
Chain of EPHB1 (P54762 whole entry, looked up): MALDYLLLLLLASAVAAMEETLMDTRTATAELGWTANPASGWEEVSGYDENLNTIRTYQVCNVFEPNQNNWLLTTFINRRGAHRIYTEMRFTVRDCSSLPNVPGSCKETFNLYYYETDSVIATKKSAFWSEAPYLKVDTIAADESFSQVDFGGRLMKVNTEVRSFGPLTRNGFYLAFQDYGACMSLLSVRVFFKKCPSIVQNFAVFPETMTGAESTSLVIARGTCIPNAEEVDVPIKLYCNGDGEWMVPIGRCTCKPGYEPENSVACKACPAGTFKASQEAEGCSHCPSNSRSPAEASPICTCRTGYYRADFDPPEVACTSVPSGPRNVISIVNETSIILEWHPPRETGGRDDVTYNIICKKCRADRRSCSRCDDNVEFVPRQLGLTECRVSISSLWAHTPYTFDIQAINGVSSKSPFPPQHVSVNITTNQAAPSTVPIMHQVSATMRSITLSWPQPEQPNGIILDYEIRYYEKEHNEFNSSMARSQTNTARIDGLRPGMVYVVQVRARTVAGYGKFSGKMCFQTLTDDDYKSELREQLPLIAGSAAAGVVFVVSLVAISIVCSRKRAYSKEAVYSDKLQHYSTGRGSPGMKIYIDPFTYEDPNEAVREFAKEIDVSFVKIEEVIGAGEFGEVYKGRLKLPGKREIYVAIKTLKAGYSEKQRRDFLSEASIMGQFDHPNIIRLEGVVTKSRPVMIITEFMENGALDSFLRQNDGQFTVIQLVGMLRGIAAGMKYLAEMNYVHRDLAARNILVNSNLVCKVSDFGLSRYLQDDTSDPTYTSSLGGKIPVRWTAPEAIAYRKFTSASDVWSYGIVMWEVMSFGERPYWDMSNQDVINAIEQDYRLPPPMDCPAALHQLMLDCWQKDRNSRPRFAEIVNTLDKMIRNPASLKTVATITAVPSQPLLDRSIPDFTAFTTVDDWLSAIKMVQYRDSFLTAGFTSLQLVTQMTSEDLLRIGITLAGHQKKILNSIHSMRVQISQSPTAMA

Row | Sequence | phosphorylation enrichment
34 | QEEPEYWDQET [HLA-A_Y83_G80E] | 1.08
35 | KILGRYYETSS [PAX2_Y72_G76S] | 0.428
36 | HQIQSYTCEID [DES_Y331] | 0.7
37 | PLDGEYFTRQI [TP53_Y327_L330R] | 0.441
38 | LQLLGYRPVYS [CHST6_Y358] | 0.954
39 | AAVDEYLEFRR [FAM221A_Y17_YF] | 0.395
40 | LTRDIYKNDFF [ROS1_Y2110_A2106T_YF] | 0.683
41 | DDDPEDRKFLE [UPF3B_Y160_Y160D] | 0.586
42 | GRLVEYDIDEV [SMS_Y134] | 0.709
43 | NPSFNYEIVNQ [DYNC1H1_Y3379_R3384Q_YF] | 3.9
44 | LKETGYVVERP [BCLAF1_Y466] | 0.494
45 | CTTNHYNYMCN [TP53_Y234_I232N] | 0.682
46 | CEQELYSQLVF [WAS_Y102_W97C_YF] | 1.84
47 | SVCPDYDLCSI [SQSTM1_Y148_V153I] | 0.942
48 | PKEEPYQMQEK [SLC5A3_Y565] | 0.964
49 | IGEGTYGVVYK [CDK2_Y15] | 2.67
50 | LSCLAYSGKDA [FXN_Y205_S202C] | 0.844

Row | Sequence | phosphorylation enrichment
51 | NACGLYFKLHN [GATA2_Y376_YF] | 0.552
52 | SQDSAYHSGIQ [FLG_Y3940] | 0.532
53 | IVKAYYVRARA [AIPL1_Y268] | 0.358
54 | FEREQYADRAR [RBM4_Y355_YF] | 0.414
55 | GFEEAYSVFKK [PAFAH1B1_Y28_YF] | 0.339
56 | DKITQYVEEVK [STX2_Y49] | 0.507
57 | ARLEYCENEKK [IRS1_Y47_Y47C] | 0.552
58 | YETVKYFNNER [ABCB7_Y345] | 0.792
59 | QKNVSYVSTVS [TASOR_Y1043] | 0.285
60 | HLNLTYRILSF [MMP23B_Y95_F91L] | 0.673
61 | RSDEDYLYREE [POR_Y573] | 0.756
62 | IEDPYYGNDFD [ACP1_Y133_S137F] | 0.832
63 | IVLRSYPASDH [NID2_Y449_G453D] | 0.543
64 | SVGVPYEPPEV [TP53_Y220_V217G] | 0.534
65 | SKNYTYIWWLN [PSG4_Y271] | 0.582
66 | KLIMEYLPYGS [JAK2_Y931] | 0.493

Each sequence was assayed against MERTK (UniProt Q12866) in the same assay as above.
Chain of MERTK (Q12866 whole entry, looked up): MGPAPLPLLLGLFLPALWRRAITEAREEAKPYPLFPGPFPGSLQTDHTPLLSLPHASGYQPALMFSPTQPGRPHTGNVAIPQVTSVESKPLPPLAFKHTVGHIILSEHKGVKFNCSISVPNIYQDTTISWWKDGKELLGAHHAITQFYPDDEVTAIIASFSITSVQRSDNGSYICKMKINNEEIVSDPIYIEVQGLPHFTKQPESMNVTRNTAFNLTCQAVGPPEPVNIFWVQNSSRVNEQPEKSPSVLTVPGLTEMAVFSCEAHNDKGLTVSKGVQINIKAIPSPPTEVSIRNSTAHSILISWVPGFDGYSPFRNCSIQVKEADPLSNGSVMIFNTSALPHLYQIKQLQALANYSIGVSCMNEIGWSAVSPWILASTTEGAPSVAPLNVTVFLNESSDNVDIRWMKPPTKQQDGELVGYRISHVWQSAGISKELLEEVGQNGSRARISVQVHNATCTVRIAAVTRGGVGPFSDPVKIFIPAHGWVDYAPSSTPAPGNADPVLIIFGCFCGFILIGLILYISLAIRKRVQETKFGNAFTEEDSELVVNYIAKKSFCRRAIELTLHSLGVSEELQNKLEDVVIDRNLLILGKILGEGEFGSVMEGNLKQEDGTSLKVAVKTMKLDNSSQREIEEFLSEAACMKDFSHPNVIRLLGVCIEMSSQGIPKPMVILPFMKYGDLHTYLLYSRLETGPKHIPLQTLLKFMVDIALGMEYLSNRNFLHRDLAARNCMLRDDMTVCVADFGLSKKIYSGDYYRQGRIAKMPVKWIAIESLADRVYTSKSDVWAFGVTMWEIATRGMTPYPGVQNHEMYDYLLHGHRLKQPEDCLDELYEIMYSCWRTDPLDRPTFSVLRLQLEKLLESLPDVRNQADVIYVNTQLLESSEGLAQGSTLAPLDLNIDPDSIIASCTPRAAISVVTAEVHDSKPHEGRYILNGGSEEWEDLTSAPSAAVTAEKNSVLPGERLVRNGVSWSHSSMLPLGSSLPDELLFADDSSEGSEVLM

Row | Sequence | phosphorylation enrichment
67 | QEEPEYWDQET [HLA-A_Y83_G80E] | 0.384
68 | KILGRYYETSS [PAX2_Y72_G76S] | 0.453
69 | HQIQSYTCEID [DES_Y331] | 0.595
70 | PLDGEYFTRQI [TP53_Y327_L330R] | 0.54
71 | LQLLGYRPVYS [CHST6_Y358] | 0.426
72 | AAVDEYLEFRR [FAM221A_Y17_YF] | 0.409
73 | LTRDIYKNDFF [ROS1_Y2110_A2106T_YF] | 0.723
74 | DDDPEDRKFLE [UPF3B_Y160_Y160D] | 0.541
75 | GRLVEYDIDEV [SMS_Y134] | 0.489
76 | NPSFNYEIVNQ [DYNC1H1_Y3379_R3384Q_YF] | 0.492
77 | LKETGYVVERP [BCLAF1_Y466] | 0.438
78 | CTTNHYNYMCN [TP53_Y234_I232N] | 0.398
79 | CEQELYSQLVF [WAS_Y102_W97C_YF] | 6.07
80 | SVCPDYDLCSI [SQSTM1_Y148_V153I] | 0.616
81 | PKEEPYQMQEK [SLC5A3_Y565] | 0.691
82 | IGEGTYGVVYK [CDK2_Y15] | 2.01
83 | LSCLAYSGKDA [FXN_Y205_S202C] | 0.558

Row | Sequence | phosphorylation enrichment
84 | NACGLYFKLHN [GATA2_Y376_YF] | 0.466
85 | SQDSAYHSGIQ [FLG_Y3940] | 0.489
86 | IVKAYYVRARA [AIPL1_Y268] | 0.502
87 | FEREQYADRAR [RBM4_Y355_YF] | 0.331
88 | GFEEAYSVFKK [PAFAH1B1_Y28_YF] | 0.544
89 | DKITQYVEEVK [STX2_Y49] | 0.505
90 | ARLEYCENEKK [IRS1_Y47_Y47C] | 0.449
91 | YETVKYFNNER [ABCB7_Y345] | 0.844
92 | QKNVSYVSTVS [TASOR_Y1043] | 0.509
93 | HLNLTYRILSF [MMP23B_Y95_F91L] | 0.42
94 | RSDEDYLYREE [POR_Y573] | 0.52
95 | IEDPYYGNDFD [ACP1_Y133_S137F] | 0.513
96 | IVLRSYPASDH [NID2_Y449_G453D] | 0.465
97 | SVGVPYEPPEV [TP53_Y220_V217G] | 0.485
98 | SKNYTYIWWLN [PSG4_Y271] | 0.332
99 | KLIMEYLPYGS [JAK2_Y931] | 0.395

These sequences were tested against Fes (UniProt P07332) in the same assay as above.
Chain of Fes (P07332 whole entry, looked up): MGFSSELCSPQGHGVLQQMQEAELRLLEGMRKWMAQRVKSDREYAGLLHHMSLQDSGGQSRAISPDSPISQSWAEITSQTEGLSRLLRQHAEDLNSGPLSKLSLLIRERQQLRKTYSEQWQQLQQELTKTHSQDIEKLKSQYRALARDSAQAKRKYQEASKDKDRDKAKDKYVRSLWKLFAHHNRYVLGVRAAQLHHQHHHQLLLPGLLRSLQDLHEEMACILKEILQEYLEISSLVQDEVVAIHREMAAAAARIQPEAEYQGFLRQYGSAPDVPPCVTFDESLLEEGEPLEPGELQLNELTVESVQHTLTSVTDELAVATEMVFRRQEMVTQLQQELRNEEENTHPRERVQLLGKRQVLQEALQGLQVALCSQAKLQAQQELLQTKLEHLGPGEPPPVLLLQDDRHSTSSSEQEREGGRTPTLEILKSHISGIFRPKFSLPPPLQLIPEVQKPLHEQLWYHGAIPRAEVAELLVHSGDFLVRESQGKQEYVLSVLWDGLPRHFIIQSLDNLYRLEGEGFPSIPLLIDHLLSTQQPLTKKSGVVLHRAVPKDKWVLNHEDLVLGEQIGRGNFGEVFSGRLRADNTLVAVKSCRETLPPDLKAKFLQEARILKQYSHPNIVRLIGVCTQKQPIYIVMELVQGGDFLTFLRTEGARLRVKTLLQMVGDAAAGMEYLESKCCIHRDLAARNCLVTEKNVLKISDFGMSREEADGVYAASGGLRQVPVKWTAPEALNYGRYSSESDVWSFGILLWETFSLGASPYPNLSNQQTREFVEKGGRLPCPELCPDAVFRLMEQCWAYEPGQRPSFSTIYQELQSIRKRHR

Row | Sequence | phosphorylation enrichment
100 | QEEPEYWDQET [HLA-A_Y83_G80E] | 1.95
101 | KILGRYYETSS [PAX2_Y72_G76S] | 0.65
102 | HQIQSYTCEID [DES_Y331] | 1.27
103 | PLDGEYFTRQI [TP53_Y327_L330R] | 1.01
104 | LQLLGYRPVYS [CHST6_Y358] | 1.24
105 | AAVDEYLEFRR [FAM221A_Y17_YF] | 0.963
106 | LTRDIYKNDFF [ROS1_Y2110_A2106T_YF] | 1.07
107 | DDDPEDRKFLE [UPF3B_Y160_Y160D] | 1.24
108 | GRLVEYDIDEV [SMS_Y134] | 1.48
109 | NPSFNYEIVNQ [DYNC1H1_Y3379_R3384Q_YF] | 1.47
110 | LKETGYVVERP [BCLAF1_Y466] | 0.807
111 | CTTNHYNYMCN [TP53_Y234_I232N] | 0.712
112 | CEQELYSQLVF [WAS_Y102_W97C_YF] | 1.44
113 | SVCPDYDLCSI [SQSTM1_Y148_V153I] | 1.16
114 | PKEEPYQMQEK [SLC5A3_Y565] | 1.92
115 | IGEGTYGVVYK [CDK2_Y15] | 0.896
116 | LSCLAYSGKDA [FXN_Y205_S202C] | 1.44

Row | Sequence | phosphorylation enrichment
117 | NACGLYFKLHN [GATA2_Y376_YF] | 0.979
118 | SQDSAYHSGIQ [FLG_Y3940] | 0.614
119 | IVKAYYVRARA [AIPL1_Y268] | 0.936
120 | FEREQYADRAR [RBM4_Y355_YF] | 0.727
121 | GFEEAYSVFKK [PAFAH1B1_Y28_YF] | 0.696
122 | DKITQYVEEVK [STX2_Y49] | 1.23
123 | ARLEYCENEKK [IRS1_Y47_Y47C] | 0.815
124 | YETVKYFNNER [ABCB7_Y345] | 0.869
125 | QKNVSYVSTVS [TASOR_Y1043] | 0.514
126 | HLNLTYRILSF [MMP23B_Y95_F91L] | 1.68
127 | RSDEDYLYREE [POR_Y573] | 1.54
128 | IEDPYYGNDFD [ACP1_Y133_S137F] | 1.47
129 | IVLRSYPASDH [NID2_Y449_G453D] | 0.823
130 | SVGVPYEPPEV [TP53_Y220_V217G] | 1.29
131 | SKNYTYIWWLN [PSG4_Y271] | 1.14
132 | KLIMEYLPYGS [JAK2_Y931] | 1.02
